Measurements as given in PMC4285326, “Structure and interactions of the Bacillus subtilis sporulation inhibitor of DNA replication, SirA, with domain I of DnaA” (Molecular Microbiology, 2014).

B1: SirA (sporulation inhibitor of DNA replication), Bacillus subtilis (natural protein, B. subtilis, UniProt P45707 1-148, looked up)
chain: MERHYYTYLIKEEFANHYFGRESVMFELFQDYHWTSLEKQQYEMTEKQIQYITQPIPILHMHQRLKMNLNKTDYRQLDYIYRIALPKAKGHATFMMKEHMIEIVASGDYEAETIFFEVLRKVSPCFLAMDFNSKRYGWLNPVKERNFV
modifications: 2-mercaptoethanol linked through a disulphide bond to Cys125 (seen in the crystal and by mass spectrometry)
notes: SirA, B. subtilis, amplified from genomic DNA, untagged; model has residues 2-141, Met1 and residues 142-148 disordered; Soluble only when coexpressed with DnaA^DI; A selenomethionine-substituted form was also crystallised for phasing; also called wild type SirA; native SirA; source: E. coli BL21 (DE3), coexpressed with His-DnaA^DI from pET-YSBLIC3C-DnaA^DISirA
B2: DnaA domain I (DnaA^DI), Bacillus subtilis, His-tag removed (domain or fragment, B. subtilis)
chain: GPAMENILDLWNQALAQIEKKLSKPSFETWMKSTKAHSLQGDTLTITAPNEFARDWLESRYLHLIADTIYELTGEELSIKFVIPQ
notes: DnaA, B. subtilis, domain I (N-terminal domain); residues 1-81 defined in the crystal, C-terminal Gln82 disordered; Calculated molecular mass 9.7 kDa; also called N-terminal domain of DnaA; not shown: His6, N-terminal, cleaved
B5: His-tagged DnaA domain I (His-DnaA^DI), Bacillus subtilis (domain or fragment, B. subtilis, UniProt P05648 1-82, looked up)
chain: MENILDLWNQALAQIEKKLSKPSFETWMKSTKAHSLQGDTLTITAPNEFARDWLESRYLHLIADTIYELTGEELSIKFVIPQ
notes: DnaA, B. subtilis, domain I (N-terminal domain); residues 1-81 defined in the crystal, C-terminal Gln82 disordered; 3C protease cleavable N-terminal His-tag, not cleaved in these experiments; also called His-tagged DnaA^DI; wild type DnaA^DI; source: E. coli BL21 (DE3), coexpressed with SirA from pET-YSBLIC3C-DnaA^DISirA; not shown: His6, N-terminal, kept

Key:
[1] = molecular target: T1, DnaA domain I (DnaA^DI), Bacillus subtilis, His-tag removed (Bacillus subtilis (strain 168), UniProt P05648); experiment: SEC-MALLS (1:1 heterodimer), Ni-NTA co-purification/pull-down, crystal structure; SirA soluble only when co-expressed with DnaA^DI; complex purified as such, not mixed from separate proteins
T1 chain: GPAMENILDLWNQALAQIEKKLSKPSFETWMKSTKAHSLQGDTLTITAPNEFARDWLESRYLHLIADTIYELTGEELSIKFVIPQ

[2] = molecular target: B2; experiment: SEC-MALS; Superdex 75 HR 10/30, 50 mM Tris pH 8.5, 200 mM KCl, 0.5 ml min^-1; DnaA^DI at 1.0, 2.5 and 5.0 mg ml^-1; SirA-DnaA^DI at 0.5, 1.0 and 2.5 mg ml^-1; conditions: both partners purified
[3] = molecular target: B1; experiment: crystal structure; native crystals, space group P2_1, two complexes per asymmetric unit; 100 mM HEPES pH 7.5, 200 mM NH4 acetate, 25% PEG 3350, 1% DMF; SAD phasing from SeMet crystals, then molecular replacement; conditions: both partners purified
[4] = molecular target: B5; experiment: pull-down; soluble lysate of E. coli coexpressing His-DnaA^DI and untagged SirA loaded onto a HisTrap FF crude Ni-affinity column in 50 mM Tris pH 8.5, 200 mM KCl, 20 mM imidazole, 10 mM BME; washed; eluted with 500 mM imidazole; eluates normalised to DnaA^DI, SDS-PAGE with Coomassie staining, bands quantified with ImageJ; conditions: partners not purified
[5] = molecular target: B1; experiment: as above; conditions: partners not purified

## B1
[1]
  binding result: binds
[2]
  stoichiometry N: 1

## B2
[3]
  binding result: binds

B3: SirA Q48A, Bacillus subtilis (natural protein, B. subtilis, UniProt P45707 1-148, looked up)
chain: MERHYYTYLIKEEFANHYFGRESVMFELFQDYHWTSLEKQQYEMTEKAIQYITQPIPILHMHQRLKMNLNKTDYRQLDYIYRIALPKAKGHATFMMKEHMIEIVASGDYEAETIFFEVLRKVSPCFLAMDFNSKRYGWLNPVKERNFV
notes: SirA, B. subtilis, untagged, with Gln48Ala; also called Gln48Ala; source: E. coli BL21, coexpressed with His-DnaA^DI, in soluble lysate
[4]
  fold lower recovery relative to wild type SirA: 1.5 fold

B4: SirA Y18A, Bacillus subtilis (natural protein, B. subtilis, UniProt P45707 1-148, looked up)
chain: MERHYYTYLIKEEFANHAFGRESVMFELFQDYHWTSLEKQQYEMTEKQIQYITQPIPILHMHQRLKMNLNKTDYRQLDYIYRIALPKAKGHATFMMKEHMIEIVASGDYEAETIFFEVLRKVSPCFLAMDFNSKRYGWLNPVKERNFV
notes: SirA, B. subtilis, untagged, with Tyr18Ala; also called Tyr18Ala; source: E. coli BL21, coexpressed with His-DnaA^DI, in soluble lysate
[4]
  fold lower recovery relative to wild type SirA: 2.5 fold

## B5
[5]
  binding result: binds

B6: SirA F14A, Bacillus subtilis (natural protein, B. subtilis, UniProt P45707 1-148, looked up)
chain: MERHYYTYLIKEEAANHYFGRESVMFELFQDYHWTSLEKQQYEMTEKQIQYITQPIPILHMHQRLKMNLNKTDYRQLDYIYRIALPKAKGHATFMMKEHMIEIVASGDYEAETIFFEVLRKVSPCFLAMDFNSKRYGWLNPVKERNFV
notes: SirA, B. subtilis, untagged, with Phe14Ala; also called Phe14Ala; source: E. coli BL21, coexpressed with His-DnaA^DI, in soluble lysate
[4]
  fold lower recovery relative to wild type SirA: 1.5 fold
